± gives the half width of the 95% confidence interval.
Experiment: folding stability dG unfold from chymotrypsin proteolysis; higher = more stable
In short: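 Mini-proteins designed to be under 80 residues and free of cysteine were carried in a PA-tagged cDNA display construct and digested with trypsin and with chymotrypsin. Each protease was applied at 11 threefold-diluted concentrations, alongside a no-protease condition, before sequencing. K50 came from Bayesian fitting of the sequencing counts, and unfolding free energy was obtained by comparing it with a sequence-predicted unfolded-state K50 and a shared folded-state K50, for each protease separately or for both together. Designs were retained only if their AlphaFold2 dimer inter-PAE exceeded 15.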

Compared with “SAGGMIKLEFENPDGMRIKIEIDRIHRFDPDNGYLIIPVKIEVEPPGKPREIDGTIILPPGMPPGQPLSAGG [r13_823_TrROS]”, “SAGGSAGGSAGKKEKVILLPVDAEPDETPEELAKKLKELNPDVEVLGFDPETGYVLVKVPSAGGSAGGSAGG [r11_465_TrMRF]” is lower in “folding stability dG unfold” value: 0.811 ± 0.082 kcal/mol for the first, -0.0143 ± 0.28 kcal/mol for the second.

Compared with “SAGGSEEVEEEPPVVVTVRLTIELTLADGSKVRVEVELVRTADGRLLLKIRVVNEDTGEVYEFTFPSAGGSA [r2_484_TrROS_Hall]”, “SAGGSAGGSAGKVTLVFKTKEDALNAIKELAEKEGLKVKIVKIEELPNGLIKITVEIEKPSAGGSAGGSAGG [r11_304_TrROS_Hall]” is lower in “folding stability dG unfold” value: 4.86 ± 0.23 kcal/mol for the first, 4.2 ± 0.095 kcal/mol for the second.

Compared with “SAGGSAGGKYEIVEVEEKEVNGEKYLIFKVKNENGEELLITVSKEDAEKILASLPPGATVEILPSAGGSAGG [r6_111_TrROS_Hall]”, “SAGGKDVKPIPVRIKIWYPDDGKPIHEIPVSAYQMDDKIHITFESPELLQFAKELAQKKGFKVEIEPSAGGS [r16_327_TrROS]” is lower in “folding stability dG unfold” value: 3.76 ± 0.14 kcal/mol for the first, 0.751 ± 0.12 kcal/mol for the second.

Going from “SASLEEILASLGYSVSRSVLPNGTEVVTARHPDGTTVTVTVTPDGTTVTVTPPDGTVTTLSVEDVRRALSAG [r14_578_JUSTAS]” to “SAGGGFSVSTGTLTDPVTGKPITLTVTNLPDGVSRVTVTLEDGKTFEFTFPANNPPTPEQVAEAVKAFSAGG [r13_492_TrMRF]”, the “folding stability dG unfold” value rises from 3.118 ± 0.017 kcal/mol to 3.631 ± 0.024 kcal/mol.

First: SAGGALANLSPEEIAALLESQGYEVTILEVEEKPGERIVKIRVTVKREDGTVESVEEIELTLPAPDKLSAGG [r13_566_JUSTAS]
Second: SAGGSAGGSAGGKPKTVKIIRDKKTNRLLIERDGKVYEFDVDNVEVREVTLEDLKEEELSAGGSAGGSAGGS [r10_512_TrROS_Hall]
The “folding stability dG unfold” value of the first is higher: 2.05 ± 0.03 kcal/mol for the first, 1.2 ± 0.045 kcal/mol for the second.

Going from “SAGGMVIVVKTPGGATSITLGNLTITQDPSTGVAVAEATPEQVEALKKDPALKDIESIEILPEEELKSAGGS [r8_493_JUSTAS]” to “SAGGSAGGMKTVEIEVTVKTPDGKEVKIKKARIEYDKETKTFHLYFENEETGEWYEVDEIKLKDSAGGSAGG [r6_329_TrROS_Hall]”, the “folding stability dG unfold” value rises from 0.648 ± 0.056 kcal/mol to 2.69 ± 0.18 kcal/mol.

Compared with “SAGGSMPLTLEIKAPASTPASEIVATLKKYGPVTVTLGDGRTYNIPRDKPPNLKGLPLAPDAVLTLVVSAGG [r13_399_JUSTAS]”, “SAGGSAGGEISFDPETGKLTILAPSSISPDAIKKAIEEAGIPFKITSVSYIPDPKTLKVEYEISSAGGSAGG [r6_395_TrMRF]” is higher in “folding stability dG unfold” value: -0.742 ± 0.4 kcal/mol for the first, 0.249 ± 0.29 kcal/mol for the second.

Going from “SAGGVIMIPADEILDMIEQNPDEPKTIFARPNNRMVMFTLKIDPDKPDNIEIDNVWRYDPNGKGEHLPSAGG [r13_481_TrROS]” to “SAMKVTITVTKHTLPDGTPYYTVTITDPSTGKTFSGPVSSEEEAKATAQALADKIEAEGTPVTITFTDDSAG [r14_263_JUSTAS]”, the “folding stability dG unfold” value rises from -0.475 ± 0.31 kcal/mol to 4.03 ± 0.086 kcal/mol.

First: SAGGSAGGMKYVVTVELPETGTTRTLTIPDNYTGEENVKKAVEEEAKKLGYSISKIEITKINDKSAGGSAGG [r6_718_JUSTAS]
Second: SAGGSAGGSAGFNIRIVNVEITGNKLTIYLPNGWVITIKFNKNGNINMKIEDIKPLPPGASAGGSAGGSAGG [r17_173_TrROS]
The “folding stability dG unfold” value of the first is lower: 0.654 ± 0.14 kcal/mol for the first, 3.98 ± 0.064 kcal/mol for the second.

Going from “SAGGSAGGVVVVAKFPTREAVFVAPESLTPEQFAEALRRELGNPDAPLVDLEVRRVTPEELLAASAGGSAGG [r6_120_TrMRF]” to “SAGGSAGGGSSITPVEVTPLPEDKYRVLIRITTYLPGGKPRTEEIEVEMPPDETAEEAAARVLSSAGGSAGG [r6_329_JUSTAS]”, the “folding stability dG unfold” value falls from 1.05 ± 0.12 kcal/mol to 0.29 ± 0.11 kcal/mol.

Going from “SAGMPLPAEELAERLAKEIEESTDYKVSIEEIKPEGEYVIIKVRVELPEKYKDKGYEEEEFVAIFPGDLSAG [r5_970_TrMRF]” to “SAGGSAGGSAGGSMKIYKITVKKEDSELEFYVSDDVPAEVAANILKALYPDVEVKIEEGSAGGSAGGSAGGS [r4_155_TrMRF]”, the “folding stability dG unfold” value rises from 0.806 ± 0.16 kcal/mol to 1.1 ± 0.1 kcal/mol.

Compared with “SAGGSEDRYLVHVLVRFPDELRELYLEARSPEEVERSVRRAIEELYPERLEDVEVVVFARPVSEPLSAGGSA [r2_111_TrMRF]”, “SAGGSAGGSAKIWIILKDADEARDRIEELFGPGVRIEPVNIQRWDGKVYVMIEIEIPPNMTSAGGSAGGSAG [r3_87_TrROS]” is higher in “folding stability dG unfold” value: 1.91 ± 0.081 kcal/mol for the first, 2.4 ± 0.051 kcal/mol for the second.

Compared with “SAGGSAGGSWIWVIKIENPEKGREYTFFIPGPLEDIKDHIREWNPDPDVKVEIQRIPVSPEAFSAGGSAGGS [r12_92_TrROS]”, “SAGGSAFEEVKKKYPNAKWEKIGDEGDTAVYRLTFPGGEKILITVPTLPETDEPVVEVTYVPKGEESAGGSA [r15_547_JUSTAS]” is higher in “folding stability dG unfold” value: 2.11 ± 0.096 kcal/mol for the first, 2.842 ± 0.017 kcal/mol for the second.

First: SAGGSAGGSAGGEKIIKVHPDNIEAFLKEAKEKGYKVILFPNGEAIVNGKKVKIISDPKSAGGSAGGSAGGS [r10_930_TrMRF]
Second: SAGKTIVLPPEMTKEQIEALAKELAEEEGFEKVELVEYDEEKGVFTVKVKVDGKEKTIEIKIVSPEELESAG [r5_912_TrROS_Hall]
The “folding stability dG unfold” value of the first is lower: 1.73 ± 0.074 kcal/mol for the first, 2.622 ± 0.022 kcal/mol for the second.

Compared with “SAGGSMTLEELKNMTVEELRELLGEDAEVTVDEETGTITIRVPGKEVTIEVDEETGEVKIVEVKPVSAGGSA [r2_470_TrROS_Hall]”, “SAGGSAGGSELEKALASAKPGEEVTVTVESTTPDGTPSVEIVEVKVEAETPSPGKENLEKNRLVSAGGSAGG [r6_893_JUSTAS]” is lower in “folding stability dG unfold” value: 2.27 ± 0.13 kcal/mol for the first, 0.0837 ± 0.065 kcal/mol for the second.

With “SAGGSMRLVKITVTTLEPSAEAIAAGAPTPVTLIEREVSSEEEVEEFIKSLPPNVEVSVERLPPPASAGGSA [r2_25_JUSTAS]” the “folding stability dG unfold” value was 2.16 ± 0.03 kcal/mol.

Reference: the supplement of paper PMC12764529
